We go through one protein from article PMC2956116 (Structure (London, England : 1993), 2010).

In general, stoichiometry N refers to the number of molecules, sites or subunits per partner or assembly.

The data set concerns the molecule itself. In words: cryo-EM structure.

B1: Staphylococcus aureus pyruvate carboxylase (enzyme, S. aureus, UniProt A0A0H3JRU9 1-1150, looked up)
chain: MKQIKKLLVANRGEIAIRIFRAAAELDISTVAIYSNEDKSSLHRYKADESYLVGSDLGPAESYLNIERIIDVAKQANVDAIHPGYGFLSENEQFARRCAEEGIKFIGPHLEHLDMFGDKVKARTTAIKADLPVIPGTDGPIKSYELAKEFAEEAGFPLMIKATSGGGGKGMRIVREESELEDAFHRAKSEAEKSFGNSEVYIERYIDNPKHIEVQVIGDEHGNIVHLFERDCSVQRRHQKVVEVAPSVGLSPTLRQRICDAAIQLMENIKYVNAGTVEFLVSGDEFFFIEVNPRVQVEHTITEMVTGIDIVKTQILVAAGADLFGEEINMPQQKDITTLGYAIQCRITTEDPLNDFMPDTGTIIAYRSSGGFGVRLDAGDGFQGAEISPYYDSLLVKLSTHAISFKQAEEKMVRSLREMRIRGVKTNIPFLINVMKNKKFTSGDYTTKFIEETPELFDIQPSLDRGTKTLEYIGNVTINGFPNVEKRPKPDYELASIPTVSSSKIASFSGTKQLLDEVGPKGVAEWVKKQDDVLLTDTTFRDAHQSLLATRVRTKDMINIASKTADVFKDGFSLEMWGGATFDVAYNFLKENPWERLERLRKAIPNVLFQMLLRASNAVGYKNYPDNVIHKFVQESAKAGIDVFRIFDSLNWVDQMKVANEAVQEAGKISEGTICYTGDILNPERSNIYTLEYYVKLAKELEREGFHILAIKDMAGLLKPKAAYELIGELKSAVDLPIHLHTHDTSGNGLLTYKQAIDAGVDIIDTAVASMSGLTSQPSANSLYYALNGFPRHLRTDIEGMESLSHYWSTVRTYYSDFESDIKSPNTEIYQHEMPGGQYSNLSQQAKSLGLGERFDEVKDMYRRVNFLFGDIVKVTPSSKVVGDMALYMVQNDLDEQSVITDGYKLDFPESVVSFFKGEIGQPVNGFNKDLQAVILKGQEALTARPGEYLEPVDFEKVRELLEEEQQGPVTEQDIISYVLYPKVYEQYIQTRNQYGNLSLLDTPTFFFGMRNGETVEIEIDKGKRLIIKLETISEPDENGNRTIYYAMNGQARRIYIKDENVHTNANVKPKADKSNPSHIGAQMPGSVTEVKVSVGETVKANQPLLITEAMKMETTIQAPFDGVIKQVTVNNGDTIATGDLLIEIEKATD
modifications: biotinylated Lys1144
For B1, the “stoichiometry N” value is 4.
